The source of these data is the nanobody polyreactivity screen of Harvey et al. (2022).

The series can be described thus: yeast display, Sf9 membrane polyspecificity reagent, FACS + sequencing; frameworks hold sequencing errors. The procedure, abridged: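 Synthetic nanobody libraries on Saccharomyces cerevisiae BJ5465 were galactose-induced for 36–48 hours, stained 1 hour at 4 °C with 10% biotinylated, detergent-solubilized Sf9 membrane reagent and enriched on streptavidin microbeads. FACS then separated cells into low and high (top ~1%) gates by anti-HA (expression) and streptavidin (reagent binding) fluorescence. Genes were colony-PCR amplified, MiSeq 2 × 250 sequenced and CDR-length filtered. A clone's polyreactivity label is that of its gate of origin.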
As for “QEHLQESGGGLVQAGGDLRLSSPSSGNIFRDYISGCYRQAPGKEREFAAGIDRGANTNYADSVKGRFTISRDNAKNTVYLQMISLKPVDTAVYYCGVHTAIVPEFIYWGQGTQVTVSS”, the “polyreactivity (PSR sort gate)” value is recorded as “low polyreactivity”.
Then “QEQLEESGGGLVQAGGSLRLSCAASGRIFAAYAKGWYRPAPGKEREVVAGITRTGGSTYYADSVKGRFTISRDNAKNTVYLQMNSLKPEDTAVYYCAARWIWRGYDYWGQGTKVTVSS”, with “high polyreactivity”; and “QEQLQEIGGRLEQAGGSLRLSCAASGYITYIGTMGWYRHAPGKEREFVATIVVGSTTNYADSVKGRFTISRDNAKNTVYLQPESGRYRGVLLRGWLLAVGKFTYWGQGTQETVSS”, with “low polyreactivity”.
In the case of “QEQLQETGGGLVRAGGSLRLICAASRSNSVEAGMGRSRQAPGEERELVATINDGSITNYAVSVKGRFTTSRDNAKYTVYLLMNSLKPEDTAVYYCAALTRNYQSHQFWGQGTQVTVSR”, the “polyreactivity (PSR sort gate)” value is recorded as “high polyreactivity”.
In the case of “QEQLVESGGGIVKAGGSLRLSCAASGSIFSYYAMGRYRKSPGKEMELVAGITGGGSTDYADSLKGRFTISRDNAKNTVYLQMNSLIPEDPAVYYCAKRYVPWRPYDYWGQGTQVTVSS”, the “polyreactivity (PSR sort gate)” value is given as “low polyreactivity”.
Then “QEQRVESGGGFVQAGGSLRLSCAASGFICVDYAMRWYRHARGNEREWVAAITYDGGSTYFADSVKARFTISRDNAKNTVNSQMNSLNPEDTALYYWAADYGYSQYILRQVRLEELDYSGQGTQVTVSS”, with “low polyreactivity”; and “QFHLVESGGGLVQAGGSLRLSCAASGITFGYYAMGWYRQAPGKERELVAAISGSASRTYYADTVKGRFTISRDNAKNTVYLQMNSLKQEDTAVYYCNARGGGTASCYYYWGPGTQVTVSS”, with “high polyreactivity”.
On to “QFHLVESGGGLVQAGGSLRLSCAASGRIFYPYAMGWYRQAPGKEREFVAAITRRTASTYYADSVKGRFTITRDNAKNTVYLQMNSLKPEDTAVYYCAADSYLKRPYYAGYYYWGQGTQVTVSS”, for which the “polyreactivity (PSR sort gate)” value is “high polyreactivity”.
Take “QFHLVESGGGLVQAGGSLRLSCAASGYTFGKYAKGWYRHAPGKDRELVAGISSRGGSTYYADSVKWRFTISRDNAKNTVYLQMISLKPEYTAVYYCAAVAYTGGPRKLSFNYWGQGTQVTLSS”: the “polyreactivity (PSR sort gate)” value is recorded as “high polyreactivity”.
The result for “QFQLEESGGGLVQAGGSLRLSCDASGSTFSYALGWYRQAPGKERELVAAITIGGRTSYADSVKGRFTISRDNAKNTVYLQMNSLKPEDTAVYYCAAEGYYPVYYYVYYGYDYWGQGTQVTVSS” reads “low polyreactivity”; that for “QFQLLESWGGLVQAGGSLLFSCAASGSTFGYYAMGWYRKAPGKERELVAAISKSGGTTSYADSVKGRFTISRDNAKNTVYLQMISLKPEDTAVYYCSARSFRRGGLRGYDSWGQGTQVTVSS”, “high polyreactivity”.
In the case of “QFQLVDSGGGLVQAGGSLRLSCAASGRNYRLYAMGWSRQAPRKERELVAAITRGGRTNYAYSVKGRFTISRDNAMNTVYLQMNSLKPEDTAVYYCAARFVERDTDYYYWGQGTQVTVSS”, the “polyreactivity (PSR sort gate)” value is on record as “low polyreactivity”.
Turning to “QFQLVDSGGGLVQAGGSLRLSCAASGRTFFFYAMGWYRQAPGKERELVASITWSGGTRTYYADSVKGRFTISRDNAKNTVYLQMNSLKREDTAVYYCADTYSSYWFNRYGGKYYYWGQGTQVTVSS”, the “polyreactivity (PSR sort gate)” value is on record as “high polyreactivity”.
With “QFQLVDSGGGLVQPGGSLRLRCAASGLTFQQYAMGWYRQAPGKERELVAAITSDGASTNYADSVKGRFTISRDNAKNTVYLQMNSLKPEDTAVYYCAARRRSRQYRYDYWGQGTQVTVSS”, the “polyreactivity (PSR sort gate)” value was “high polyreactivity”.
Then “QFQLVESAGGLLQAGGSLRIICAASGSTFGYNAMGWYRQAPGKERELVAAITGGGTTNYADSVKGRFTISRDNAKNTVYLQMNSLKPEDTAVYYCAASARRFFFPIYGLYYWGQVTQVTVSS”, with “high polyreactivity”; and “QFQLVESGGCLVQAGGSLRLSCAASGSIFLENTMGWYRQARGKEWEVVAPITSSGDSTYADSVKGRFTIARDNAKNTVYLHMNSLKPEDTAVYYCAAYAGSVRPGDLYGYDYWGQGTQVTVSS”, with “low polyreactivity”; and “QFQLVESGGGIVQAGGRLRLSCAASGSTFFGYAMGWFRQAPGKVRELVAAISSGGSTYYADSVKGRFTISRDNAKNTVYVQMNSLKPEDTAVYYCAAYSYPKKYGYWGQGTQVTVSL”, with “high polyreactivity”.
Then “QFQLVESGGGLDQAGGSLRLSCAASGFIFSWYAMGWYRQAPGKERELVAAINWSGGSTYYADSVKGRFTISRDNAKNTVYLQMNSLKPEDTAVYYCAAVRQSQFEYWGQGTQVTVSS”, with “high polyreactivity”.
The result for “QFQLVESGGGLDQAGGSLRLSCAASGRIFYRNCMGWYSQAPWKDRELVASIRRGGSTNYADSVKGRFTISRDNAKYTVYLQMNSVKPEDTAVYYCAARRFYPYISSGPYYYWGQGTQVTVSS” reads “high polyreactivity”; that for “QFQLVESGGGLFQAGGSLRLSCAASGSTFKRYAMGSYRQAPGKERELVAAISASGGSTSYADSVKGRFTISRDKAKNTVYLQMISLKPEDTAVYYCARDRFRSRFDYWGQGTQVTVSS”, “high polyreactivity”.
For the sequence “QFQLVESGGGLVEAGGSLRLSCAASGFTFSWYVMGWYRPAPGKERELVATITNRGGSTYYADSVKGRFTISRDNAKNTVYIQMKSQKPEDTAVYYCAARKKGSRVGYDYWGEGTQVTVSS”, the “polyreactivity (PSR sort gate)” value was “high polyreactivity”.
Consider “QFQLVESGGGLVQAGASLRLSCAASGSISKSYAMGWYRQAPGKERELVAAISWRGGSTYADSVKGRFTISRDNAKNTVYLQMNCLKPEDTAVYYCAATNYGTFWGGQSERYDYWGQGTQVTVSS”, for which the “polyreactivity (PSR sort gate)” value is reported as “low polyreactivity”.
The result for “QFQLVESGGGLVQAGASLRLSCAASVSTFRPYAMGWYRQAPGKERELVAAISSGDSTYYADSVKGRFTISRDNGKNTVYLQMNSLIPDDTAVYYCAKRNYWHRGGGYWGLGTQVTVSS” reads “high polyreactivity”; that for “QFQLVESGGGLVQAGCSLRLSCAASGRTVGSNDMGWYRQAPRKEMDLFAAIPTTTASTNYADSVKGRFTISRDNAKNTVYFQMNSLKPEDNAVYYCNKQYLWYYWDGTDAEDYWGQGTQVTVSS”, “low polyreactivity”.
For “QFQLVESGGGLVQAGGILRLSCAASGLIFQAYTMGWYRQAPGKEREFVAAISKSGGSTYYADSVKGRFTISRDNAKNTVYLQMNSLKPEDTAVYYCAAVDWRRPGYDYWGQGTQVTVSS”, the “polyreactivity (PSR sort gate)” value is recorded as “high polyreactivity”.
Then “QFQLVESGGGLVQAGGILRLSCAASGRIFKYYAMGWYRQEPGKERELVAAISRGGSTYYADSVKGRFTISRDNAKNTVYLQMNSLKPEDSAVYYCNAYRHGYVAYRRYDYWGQGTQVTVSS”, with “high polyreactivity”; and “QFQLVESGGGLVQAGGRLRLSCAASGSTLRRYAMGWYRQAPGKERELVAAITYRSGSTYYADSVKGRFTISRDNAKNTVYLEMNSLKPVDTAVYYCAKVGYVSKYWFAGDYWGQGTQVTVSS”, with “high polyreactivity”; and “QFQLVESGGGLVQAGGSLRLSCAASGFIFAVNAMGWYRQAPGKERELVAAISSSGTTNYADSVKGRFTISRDNAKNTVYLQMNSLKPEDTAVYYCNKRWRDKYPQYDYWGQGTQVTVSS”, with “low polyreactivity”.
The result for “QFQLVESGGGLVQAGGSLRLSCAASGFIFKPYTMGWYRQAPGKERELVATITFSGGSTYYADSVKGRFTNSRDNAKNTVYLQMNSLKPEDTAVYYCAAPRFYRGYAIYDYWGQGTQVTVSS” reads “low polyreactivity”; that for “QFQLVESGGGLVQAGGSLRLSCAASGFNFQYNAIGWYRQAPGKERELVAAITWTGTSTYADSVKGRFTISRDYAKNTVYLQMNSLKPEDTSVYYCAARYYAPRWFRYDYWGQGTQVTVSS”, “low polyreactivity”.
In the case of “QFQLVESGGGLVQAGGSLRLSCAASGFTFPGYALGWSTQAPGKERELVAAINSSGGRTYYADSVKWRFTISRDNAKYTVYLQMNSLKPEDTEVYYCGATRWYIRARYNYWGHGTQVTVSS”, the “polyreactivity (PSR sort gate)” value is recorded as “high polyreactivity”.
Turning to “QFQLVESGGGLVQAGGSLRLSCAASGFTFYPYAMGWSRQAPGKERELVAAITRSGTSTFYADSVKGRFTISRDNAKNTVYLQMNSLKPEDTAVYYCAKGYFFVGTDWESYYWGQGTQVTVSS”, the “polyreactivity (PSR sort gate)” value is listed as “low polyreactivity”.
The result for “QFQLVESGGGLVQAGGSLRLSCAASGFTYYFYAMGWYRPAPGKERELVAAISRGGSTTYADSVKGRFTISRDNAKNTVYLQMYSLKPEDTAVYYCGADDYYDPHYEYDFWGQGTQVTVSS” reads “low polyreactivity”.
In the case of “QFQLVESGGGLVQAGGSLRLSCAASGIIFGRYTMGWYRDAPGKERELVAAITSSGITYYADSVKGRFTISRDNAKNTVYLQMNSLKPEDTAVYYCAADVGYWGRSRGYPSDDYDYWGQGTQVTVSS”, the “polyreactivity (PSR sort gate)” value is “low polyreactivity”.
Then “QFQLVESGGGLVQAGGSLRLSCAASGITFGTNAMGWYRQATGKERELVARISSSDASTYYADSVKGRFTISRDNGKNTVYLQMNSLKPEDTAVYYCAADIYVTGYFRYDYWGQGTQVTVSS”, with “low polyreactivity”; and “QFQLVESGGGLVQAGGSLRLSCAASGITFTFNARGWYRQAPGKERELVAAITWSGGSPFYADSVKGRFTISRDNAKNTVYLQLNSLNPEDTAVYYCARDTELYVRWLDYWGQGTQVTVSS”, with “low polyreactivity”.
Then “QFQLVESGGGLVQAGGSLRLSCAASGNIFGYYALGWYRQAPGKEREFVAAISGGDSTNYADSVKGRFTNSRDNAKNTVYLQMNSLQPEDTAVYYCARDYWSGASGGYPYDYWGQGTQVTVSS”, with “low polyreactivity”; and “QFQLVESGGGLVQAGGSLRLSCAASGNTFTKYAMGWYRQAPGKDRELLAGITRGGSTNYADSVKGRFTISRDNAKNTVYFQMNSLKPEDTAVYYCNARPVYGSRFYSAVRMEYWGQGTQVTVSS”, with “low polyreactivity”.
As to “QFQLVESGGGLVQAGGSLRLSCAASGQILPYYAMGWYRQAPGKERELVAAISRTGGRTSYADSVNGRLTISRDNAKNTFYLQMNSLSPEDTAVYYCAAVGQSGGRRYDYWGQGTQVTVSS”, the “polyreactivity (PSR sort gate)” value is reported as “high polyreactivity”.
The result for “QFQLVESGGGLVQAGGSLRLSCAASGRIFRVNAKGWYRPAPGKERELVAGITQGDGSTYYADSVKGRFTISRDNAKNTVYLQMNSLKPEDTAVYYCAASTGPDRQFDSWGQGTQVTVSS” reads “low polyreactivity”; that for “QFQLVESGGGLVQAGGSLRLSCAASGRIFYLYAMGWYRQAPGKERELVAGITSGGRTNYADSVKGRFTISRDNGKNTVFLQMNSLKPEDSAVYYCAAGSLRYKYDYWGQGTQVTVSS”, “high polyreactivity”.
